Reference: publication PMC3430514
Read-outs that look alike come from different tables or passages of the source.

T1: RIG-I helicase-RD (human, UniProt O95786 232-925)
T1 sequence: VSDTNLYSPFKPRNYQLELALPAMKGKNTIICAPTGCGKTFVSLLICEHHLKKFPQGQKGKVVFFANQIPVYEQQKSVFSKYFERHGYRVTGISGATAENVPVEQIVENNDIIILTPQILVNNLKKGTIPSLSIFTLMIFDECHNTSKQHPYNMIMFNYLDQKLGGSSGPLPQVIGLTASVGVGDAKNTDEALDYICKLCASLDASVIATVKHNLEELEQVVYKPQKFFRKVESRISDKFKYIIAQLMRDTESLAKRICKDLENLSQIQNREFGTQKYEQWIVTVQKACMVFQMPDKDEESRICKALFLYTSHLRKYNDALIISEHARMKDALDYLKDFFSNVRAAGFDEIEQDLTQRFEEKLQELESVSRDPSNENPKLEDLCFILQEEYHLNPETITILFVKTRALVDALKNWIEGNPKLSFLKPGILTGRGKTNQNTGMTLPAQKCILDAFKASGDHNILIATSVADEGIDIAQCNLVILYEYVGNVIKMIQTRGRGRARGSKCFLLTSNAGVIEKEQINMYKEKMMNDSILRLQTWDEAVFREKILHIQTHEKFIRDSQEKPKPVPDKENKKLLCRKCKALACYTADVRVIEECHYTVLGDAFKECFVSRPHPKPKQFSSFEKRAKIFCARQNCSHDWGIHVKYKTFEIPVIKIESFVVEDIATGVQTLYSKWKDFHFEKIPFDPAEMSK

T2: RIG-I full-length (human, UniProt O95786 1-925)
T2 sequence: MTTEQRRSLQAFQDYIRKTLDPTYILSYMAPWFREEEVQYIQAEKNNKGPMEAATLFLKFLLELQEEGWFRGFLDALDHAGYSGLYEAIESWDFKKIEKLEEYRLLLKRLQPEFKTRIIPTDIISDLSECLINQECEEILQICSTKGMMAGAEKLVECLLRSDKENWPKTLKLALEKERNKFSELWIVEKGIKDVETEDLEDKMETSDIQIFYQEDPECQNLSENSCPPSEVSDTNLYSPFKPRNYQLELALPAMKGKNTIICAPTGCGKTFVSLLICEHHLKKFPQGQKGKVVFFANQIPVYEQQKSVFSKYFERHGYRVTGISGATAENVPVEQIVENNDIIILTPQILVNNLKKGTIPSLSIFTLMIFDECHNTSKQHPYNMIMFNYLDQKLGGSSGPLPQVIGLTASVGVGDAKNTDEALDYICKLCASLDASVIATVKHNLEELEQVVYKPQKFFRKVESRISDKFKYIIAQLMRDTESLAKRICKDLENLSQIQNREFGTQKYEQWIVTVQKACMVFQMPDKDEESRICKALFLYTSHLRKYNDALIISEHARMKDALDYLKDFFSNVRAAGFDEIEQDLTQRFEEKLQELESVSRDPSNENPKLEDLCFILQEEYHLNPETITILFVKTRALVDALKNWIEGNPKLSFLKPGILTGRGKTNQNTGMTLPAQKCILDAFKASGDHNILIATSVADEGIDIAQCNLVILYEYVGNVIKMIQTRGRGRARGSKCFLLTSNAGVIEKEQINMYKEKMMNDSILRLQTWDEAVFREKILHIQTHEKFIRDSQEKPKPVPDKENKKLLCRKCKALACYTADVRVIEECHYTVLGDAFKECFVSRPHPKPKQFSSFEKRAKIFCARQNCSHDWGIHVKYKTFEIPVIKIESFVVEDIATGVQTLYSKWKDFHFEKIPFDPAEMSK

T3: RIG-I helicase domain (human, UniProt O95786 232-794)
T3 sequence: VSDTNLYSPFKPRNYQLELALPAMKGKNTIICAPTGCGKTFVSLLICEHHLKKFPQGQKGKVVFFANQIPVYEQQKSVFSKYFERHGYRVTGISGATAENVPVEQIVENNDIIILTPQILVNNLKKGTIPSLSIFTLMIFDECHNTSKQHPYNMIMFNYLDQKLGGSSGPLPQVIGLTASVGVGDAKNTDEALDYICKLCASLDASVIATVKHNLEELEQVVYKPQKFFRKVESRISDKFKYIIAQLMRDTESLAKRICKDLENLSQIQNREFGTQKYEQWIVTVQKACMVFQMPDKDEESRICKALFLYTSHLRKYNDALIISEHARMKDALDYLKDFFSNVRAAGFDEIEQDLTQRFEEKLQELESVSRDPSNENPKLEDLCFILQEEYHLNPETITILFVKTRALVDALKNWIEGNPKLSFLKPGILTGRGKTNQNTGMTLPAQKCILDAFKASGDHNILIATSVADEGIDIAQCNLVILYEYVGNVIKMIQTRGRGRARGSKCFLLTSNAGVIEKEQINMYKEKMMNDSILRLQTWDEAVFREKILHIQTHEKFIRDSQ

T4: RIG-I RD (repressor domain) (human, UniProt O95786 795-925)
T4 sequence: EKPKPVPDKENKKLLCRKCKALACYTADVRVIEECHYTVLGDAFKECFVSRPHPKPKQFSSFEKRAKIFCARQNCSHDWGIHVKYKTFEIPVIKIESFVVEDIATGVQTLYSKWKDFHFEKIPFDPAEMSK

B1: 14bp pal dsRNA (dsRNA)
RNA 1: CGACGCUAGCGUCG
RNA 2: CGACGCUAGCGUCG
modifications: 5-iodouridine derivative also crystallized
B2: 14bp dsRNA-F (dsRNA)
RNA 1: GGAGAGAACCGCCU
RNA 2: AGGCGGUUCUCUCC
modifications: 5'-OH

How the values were obtained:
[1] = molecular target: T1, RIG-I helicase-RD; experiment: X-ray crystallography
[2] = molecular target: T2, RIG-I full-length; experiment: fluorescence anisotropy
[3] = molecular target: T3, RIG-I helicase domain; experiment: fluorescence anisotropy
[4] = molecular target: T4, RIG-I RD (repressor domain); experiment: fluorescence anisotropy
[5] = molecular target: T3, RIG-I helicase domain; experiment: fluorescence anisotropy; remark: listed apart in the source

| Binder | binding result [1] | Kd [2] [nM] | Kd [3] [nM] | Kd [4] [nM] | Kd [5] [nM] |
| --- | --- | --- | --- | --- | --- |
| B1 | binds | – | – | – | – |
| B2 | – | 1.2 | 436 ± 121 | 2.6 ± 1.2 | 1300 |
